Laboratory results reported in PMC10397247.

Assays:
P9SHb = target: T1, P9SHb; assay: two-hybrid library CCNG1;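 also: natural log of median RNA to DNA barcode read ratio; higher means stronger binding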
T1 chain: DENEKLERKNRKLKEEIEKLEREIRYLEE

P7SHb = target: T2, P7SHb; assay: two-hybrid library CCNG1;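 also: natural log of median RNA to DNA barcode read ratio; higher means stronger binding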
T2 chain: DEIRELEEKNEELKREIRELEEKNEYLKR

P2SHb = target: T3, P2SHb; assay: two-hybrid library CCNG1;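 also: natural log of median RNA to DNA barcode read ratio; higher means stronger binding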
T3 chain: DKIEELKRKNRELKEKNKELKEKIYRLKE

P5SHb = target: T4, P5SHb; assay: two-hybrid library CCNG1;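 also: natural log of median RNA to DNA barcode read ratio; higher means stronger binding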
T4 chain: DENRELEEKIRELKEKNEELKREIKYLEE

P6SHb = target: T5, P6SHb; assay: two-hybrid library CCNG1;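 also: natural log of median RNA to DNA barcode read ratio; higher means stronger binding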
T5 chain: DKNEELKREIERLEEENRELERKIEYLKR

P1SHb = target: T6, P1SHb; assay: two-hybrid library CCNG1;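 also: natural log of median RNA to DNA barcode read ratio; higher means stronger binding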
T6 chain: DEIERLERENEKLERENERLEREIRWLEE

P8SHb = target: T7, P8SHb; assay: two-hybrid library CCNG1
T7 chain: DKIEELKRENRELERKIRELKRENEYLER

P3SHb = target: T8, P3SHb; assay: two-hybrid library CCNG1
T8 chain: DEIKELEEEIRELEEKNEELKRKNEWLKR

P4SHb = target: T9, P4SHb; assay: two-hybrid library CCNG1
T9 chain: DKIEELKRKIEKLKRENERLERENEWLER

APC9806-AA = target: T10, APC9806-AA; assay: two-hybrid library CCmax; conditions: mean of both orientations
T10 chain: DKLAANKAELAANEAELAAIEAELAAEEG

APC9141-AA = target: T11, APC9141-AA; assay: two-hybrid library CCmax; conditions: mean of both orientations
T11 chain: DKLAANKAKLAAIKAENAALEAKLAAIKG

APC1987-AA = target: T12, APC1987-AA; assay: two-hybrid library CCmax
T12 chain: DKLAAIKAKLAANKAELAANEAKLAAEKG

APC3323-AA = target: T13, APC3323-AA; assay: two-hybrid library CCmax; conditions: mean of both orientations
T13 chain: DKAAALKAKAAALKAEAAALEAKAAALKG

APC2981-AA = target: T14, APC2981-AA; assay: two-hybrid library CCmax; conditions: mean of both orientations
T14 chain: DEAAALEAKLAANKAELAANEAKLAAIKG

APC2543-AA = target: T15, APC2543-AA; assay: two-hybrid library CCmax; conditions: mean of both orientations
T15 chain: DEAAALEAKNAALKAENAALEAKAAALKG

APC3265-AA = target: T16, APC3265-AA; assay: two-hybrid library CCmax; conditions: mean of both orientations
T16 chain: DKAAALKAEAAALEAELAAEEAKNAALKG

APC8516-AA = target: T17, APC8516-AA; assay: two-hybrid library CCmax; conditions: mean of both orientations
T17 chain: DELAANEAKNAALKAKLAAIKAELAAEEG

APC6088-AA = target: T18, APC6088-AA; assay: two-hybrid library CCmax; conditions: mean of both orientations
T18 chain: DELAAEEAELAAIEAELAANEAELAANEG

APC4336-AA = target: T19, APC4336-AA; assay: two-hybrid library CCmax; conditions: mean of both orientations
T19 chain: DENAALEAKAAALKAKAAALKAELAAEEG

APC9291-AA = target: T20, APC9291-AA; assay: two-hybrid library CCmax; conditions: mean of both orientations
T20 chain: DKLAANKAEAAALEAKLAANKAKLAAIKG

APC2811-AA = target: T21, APC2811-AA; assay: two-hybrid library CCmax; conditions: mean of both orientations
T21 chain: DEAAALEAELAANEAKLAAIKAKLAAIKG

APC2474-AA = target: T22, APC2474-AA; assay: two-hybrid library CCmax; conditions: mean of both orientations
T22 chain: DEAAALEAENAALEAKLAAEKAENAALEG

APC2375-AA = target: T23, APC2375-AA; assay: two-hybrid library CCmax; conditions: mean of both orientations
T23 chain: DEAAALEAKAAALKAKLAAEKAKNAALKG

APC5531-AA = target: T24, APC5531-AA; assay: two-hybrid library CCmax; conditions: mean of both orientations
T24 chain: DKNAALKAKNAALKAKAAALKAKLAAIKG

APC2724-AA = target: T25, APC2724-AA; assay: two-hybrid library CCmax; conditions: mean of both orientations
T25 chain: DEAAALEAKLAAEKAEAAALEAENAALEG

APC2556-AA = target: T26, APC2556-AA; assay: two-hybrid library CCmax; conditions: mean of both orientations
T26 chain: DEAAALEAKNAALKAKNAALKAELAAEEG

APC5009-AA = target: T27, APC5009-AA; assay: two-hybrid library CCmax; conditions: mean of both orientations
T27 chain: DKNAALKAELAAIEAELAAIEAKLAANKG

APC4100-AA = target: T28, APC4100-AA; assay: two-hybrid library CCmax; conditions: mean of both orientations
T28 chain: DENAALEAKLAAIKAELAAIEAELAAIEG

APC8401-AA = target: T29, APC8401-AA; assay: two-hybrid library CCmax; conditions: mean of both orientations
T29 chain: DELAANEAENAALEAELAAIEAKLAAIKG

APC222-AA = target: T30, APC222-AA; assay: two-hybrid library CCmax; conditions: mean of both orientations
T30 chain: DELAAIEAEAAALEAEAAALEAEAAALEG

APC9182-AA = target: T31, APC9182-AA; assay: two-hybrid library CCmax; conditions: mean of both orientations
T31 chain: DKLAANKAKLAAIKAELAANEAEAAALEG

APC7524-AA = target: T32, APC7524-AA; assay: two-hybrid library CCmax; conditions: mean of both orientations
T32 chain: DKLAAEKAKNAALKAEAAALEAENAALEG

APC3354-AA = target: T33, APC3354-AA; assay: two-hybrid library CCmax; conditions: mean of both orientations
T33 chain: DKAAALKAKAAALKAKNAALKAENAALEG

APC2257-AA = target: T34, APC2257-AA; assay: two-hybrid library CCmax; conditions: mean of both orientations
T34 chain: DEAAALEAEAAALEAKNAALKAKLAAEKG

APC542-AA = target: T35, APC542-AA; assay: two-hybrid library CCmax; conditions: mean of both orientations
T35 chain: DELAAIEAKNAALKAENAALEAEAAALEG

APC3881-AA = target: T36, APC3881-AA; assay: two-hybrid library CCmax; conditions: mean of both orientations
T36 chain: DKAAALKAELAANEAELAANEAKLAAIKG

B1: P1SHb (peptide)
chain: DEIERLERENEKLERENERLEREIRWLEE
P9SHb
  interaction score: -0.505
P7SHb
  interaction score: -0.298
P2SHb
  interaction score: 1.75
P5SHb
  interaction score: -0.59
P6SHb
  interaction score: -0.147
P1SHb
  interaction score: -1.02
P8SHb
  interaction score: -0.756
P3SHb
  interaction score: -1.76
P4SHb
  interaction score: -0.498

B2: APC1987-AA (peptide)
chain: DKLAAIKAKLAANKAELAANEAKLAAEKG
APC9806-AA
  interaction score: -1.87
APC9141-AA
  interaction score: -1.68
APC1987-AA
  interaction score: -2.07
APC3323-AA
  interaction score: -2.07
APC2981-AA
  interaction score: -1.82
APC2543-AA
  interaction score: -2.01
APC3265-AA
  interaction score: -1.69
APC8516-AA
  interaction score: -2.25
APC6088-AA
  interaction score: -1.6
APC4336-AA
  interaction score: -1.72
APC9291-AA
  interaction score: -1.88
APC2811-AA
  interaction score: -1.92
APC2474-AA
  interaction score: -1.87
APC2375-AA
  interaction score: -1.68
APC5531-AA
  interaction score: -1.83
APC2724-AA
  interaction score: -1.7
APC2556-AA
  interaction score: -1.78
APC5009-AA
  interaction score: -1.2
APC4100-AA
  interaction score: -1.33
APC8401-AA
  interaction score: -1.6
APC222-AA
  interaction score: -1.81
APC9182-AA
  interaction score: -1.95
APC7524-AA
  interaction score: -1.75
APC3354-AA
  interaction score: -1.64
APC2257-AA
  interaction score: -1.35
APC542-AA
  interaction score: -1.67
APC3881-AA
  interaction score: -1.66
